Measurements from patent US20100092484A1 (published 2010).
Substitutions are numbered along the chain they refer to. Names and notes keep the numbering of the source. One block for each binder: values may come before it.

Columns and labels:
[1] = biological target: T1, lymphatic vessel endothelial hyaluronan receptor 1 protein (LYVE-1) (R&D, Cat. No. 2089-Ly) (UniProt Q9Y5Y7 24-232, limits assumed); assay: ELISA on plate-coated LYVE-1 (50 ng), anti-human kappa-HRP detection
T1 sequence (looked up): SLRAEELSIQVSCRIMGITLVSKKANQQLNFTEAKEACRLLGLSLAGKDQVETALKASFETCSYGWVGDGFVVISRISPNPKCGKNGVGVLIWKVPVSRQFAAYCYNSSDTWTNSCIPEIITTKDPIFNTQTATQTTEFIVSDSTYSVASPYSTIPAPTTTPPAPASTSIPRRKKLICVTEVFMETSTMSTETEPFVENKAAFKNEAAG
Description: (§1) A 96 well ELISA plate (Immuno Maxisorp plate, Nunc Cat. No. 442-404) was coated with 50 ng CD44-Ig fusion protein or LYVE-1 and incubated overnight at 4° C. The plates were then washed by PBS, 0.05% Tween-20 and blocked by 3% BSA in PBS for two hours at room temperature. […] The ELISA plates were incubated at room temperature for 1.5 hours. […] Plates were washed again, and […] of TMB were added and incubated for 5 to 10 minutes. ELISA reactions were stopped with stop solution and OD450 values were measured by a plate reader.

human CD44 (on cells) [2] = biological target: T2, human CD44 (on cells) (human, UniProt P16070 21-742); assay: cell-based or functional assay
human CD44 (on cells) [3] = biological target: T2, human CD44 (on cells); assay: cell-based or functional assay; remark: listed apart in the source
[4] = biological target: T3, human CD44-IgG1 fusion protein (extracellular domain of human CD44 fused to human IgG1) (human); assay: ELISA: antibody pre-mixed with human CD44-Ig (0.6 µg/ml); inhibition of CD44-Ig binding to plate-coated hyaluronic acid (HA)
T3 construct: also called human CD44-Ig fusion protein; human CD44-Fc fusion protein
Description: (§2) Human anti-CD44 antibodies were evaluated for their ability to inhibit the interaction between HA (Sigma, Cat. No. H5388) and human CD44 protein (SEQ ID NO:3) as described in EXAMPLE 2.
(§3) Binding assays were conducted in 96 well ELISA assay plates (Immunolux HB Maxisorp 96-well plates, Nunc Cat. No. 442-404). On day one, 100 μl of rooster comb HA diluted in 50 mM Nabicarb buffer, pH 9.6 at 2.5 mg/ml was added to assay wells on the plate and incubate at 4° C. overnight. Approximately, 24 hours later the HA coated plates were washed four times using 300 μl of PBS buffer with 0.05% Tween-20 (Sigma, Cat. No. P1379). The plates were then blocked by adding 200 μl of 3% BSA in PBS to each well and incubated for 2 hours at 37° C. The blocked plates were then washed with PBS with 0.05% Tween-20. […] The mixture was incubated at room temperature for 60 minutes and then transferred to the HA-coated plates and incubate at room temperature for one hour. The plates were washed by PBS with 0.05% Tween-20. Anti-human IgG-HRP (Amersham Biosciences, Piscataway, N.J., State, Cat. No. NA933) diluted 1:500 in 1% BSA (to detect CD44-Ig that is bound to HA) were added to each wells and incubate at room temperature. […] The reactions were then stopped with 50 μl of stop solution and OD₄₅₀ values were measured on a plate reader.

human CD44 (on cells) [5] = biological target: T2, human CD44 (on cells); assay: cell-based or functional assay; remark: listed apart in the source
[6] = biological target: T4, cynomolgus CD44 (on cells) (cynomolgus monkey, UniProt P16070 21-742 (human entry)); assay: cell-based or functional assay
T4 chain: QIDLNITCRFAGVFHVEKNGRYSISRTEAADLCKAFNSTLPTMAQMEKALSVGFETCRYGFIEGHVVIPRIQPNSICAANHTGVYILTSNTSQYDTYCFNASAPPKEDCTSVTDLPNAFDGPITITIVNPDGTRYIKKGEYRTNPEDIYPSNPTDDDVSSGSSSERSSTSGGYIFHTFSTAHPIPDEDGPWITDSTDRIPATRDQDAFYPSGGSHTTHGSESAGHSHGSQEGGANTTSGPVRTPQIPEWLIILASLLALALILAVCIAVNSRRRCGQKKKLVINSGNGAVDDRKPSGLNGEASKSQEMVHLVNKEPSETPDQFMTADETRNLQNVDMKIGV

[7] = biological target: T4, cynomolgus CD44 (on cells); assay: cell-based or functional assay
human CD44 (on cells) [8] = biological target: T2, human CD44 (on cells); assay: cell-based or functional assay; remark: listed apart in the source
[9] = biological target: T3, human CD44-IgG1 fusion protein …; assay: ELISA on plate-coated CD44-Ig against plate-coated LYVE-1
Description: as §1

[10] = biological target: T3, human CD44-IgG1 fusion protein …; assay: ELISA on plate-coated CD44-Ig (50 ng), anti-human kappa-HRP detection
Description: as §1

[11] = biological target: T3, human CD44-IgG1 fusion protein …; assay: BIAcore SPR, human CD44-Fc fusion immobilised on a CM5 chip, antibody as analyte
Description: Surface plasmon resonance was used to measure the molecular interaction on a CM5 sensor chip coated with human CD44-Fc fusion protein (12 μg/ml, 10 mM Acetate, pH 4.0) on the surface. Anti-CD44 Abs at concentration of 5, 3, 2, 1, 0.5 and 0.25 μg/ml were screened by direct method. Human IgG1 and IgG2 standards were used to check nonspecific and background binding. Initial portion of the association and dissociation phase of the curves are used to calculate affinity and rate constants and is reported in TABLE 17.

[12] = biological target: T3, human CD44-IgG1 fusion protein …; assay: BIAcore 2000 SPR, human CD44-Ig immobilised on a CM-5 chip, antibody 100 to 0.1 ug/ml as analyte
Description: Human CD44-Ig (55 RU, 86 RU) and cyno CD44-Ig (99 RU, 116 RU) were immobilized to CM-5 chips at a concentration of 10 ug/ml in 10 mM Na Acetate pH 3.5. […] The chip was then regenerated with 50 mM NaOH and washed with HBS-EP (BIAcore 22-0512-44). Analysis was carried out on the Biacore 2000. Data was analyzed using BIAEvaluation™ software (n=2).

human CD44 (on cells) [13] = biological target: T2, human CD44 (on cells); assay: FACS equilibrium binding analysis on 300-19 cells transduced with human CD44; printed as 'binding constant'
Description: The 300-19 cells which were transduced with retroviral vector encoding human CD44 protein and were washed two times by PBS. […] After 3 hours the cells were washed twice with FACS buffer. The cells were resuspended into 250 μl of 1% paraformaldehyde, (Electron Microscopy Science, Ft. Washington, Pa., Cat. No. 15710). The tubes were read using Becton Dickinson FACSCalibur and the data was analyzed using CellQuest Pro (Becton Dickinson).

[14] = biological target: T3, human CD44-IgG1 fusion protein …; assay: ELISA: antibody pre-mixed with human CD44-Ig (0.6 µg/ml); inhibition of CD44-Ig binding to plate-coated hyaluronic acid (HA, a polysaccharide)
Description: as §2, §3

human CD44 (on cells) [15] = biological target: T2, human CD44 (on cells); assay: FACS competition against labelled anti-CD44 antibody MEM-85 on cells bearing human CD44; cells: 300-19 cells transfected with human CD44 per legend paragraph 42, but the range 0.2 to 20 µg/ml is that of the human peripheral T cell study in paragraph 322

- binding result [1]: no binding (tested: 10 µg/ml)
B1: anti-CD44 monoclonal antibody 14G9.B8.B4 (antibody, human IgG1, kappa, V domains shown)
VH: QVQLVQSGAEVKKPGASVKVSCKASGYTFTNYAMHWVRQAPGQRLEWMGWINTGNGNTKYSQKFQGRVTITRDTSASTAYMELSSLRSEDTAVYYCARFYSGSGSPWGQGTLVTVSS
VL: not shown

- IC50 of IL-1β release from purified human PBMC stimulated by HA (human CD44 (on cells) [2]): 0.4 µg/mL
- IC50 of reduction of CD44 surface expression on human peripheral CD3+ T cells (FACS) (human CD44 (on cells) [3]): > 20 µg/mL
- IC50 [4]: 0.64 µg/mL
B2: anti-CD44 monoclonal antibody 10C8.2.3 (antibody, human IgG4, kappa, V domains shown)
VH: EVQLMESGGGLVKPGGSLRLSCAASGFTFSSYSMNWVRQAPGKGLEWVSSITVRSSYIYYADSVKGRFTISRDNAKNSLYLQMNSLRAEDTAVYYCARVLAIAVPGTSYYYYGMDVWGQGTTVTVSS
VL: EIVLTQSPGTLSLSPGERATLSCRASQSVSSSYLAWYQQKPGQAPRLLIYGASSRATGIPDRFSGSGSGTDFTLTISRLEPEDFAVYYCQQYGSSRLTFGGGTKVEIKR

- IC50 of IL-1β release from purified human PBMC stimulated by HA (human CD44 (on cells) [2]): 0.83 µg/mL
- IC50 of IFN-γ release from human peripheral blood activated by anti-CD3 and anti-CD28 antibodies (human CD44 (on cells) [5]): 2.46 µg/mL
- IC50 of IL-2 release from human peripheral blood activated by anti-CD3 and anti-CD28 antibodies (human CD44 (on cells) [5]): 0.58 µg/mL
- IC50 of reduction of CD44 surface expression on cynomolgus peripheral CD3+ T cells (FACS) [6]: 0.82 µg/mL
- IC50 of reduction of CD44 surface expression on human peripheral CD3+ T cells (FACS) (human CD44 (on cells) [3]): 2.8 µg/mL
- IC50 of reduction of CD44 expression on cynomolgus peripheral blood T cells (FACS) [7]: 1.1 µg/mL
- IC50 of reduction of CD44 expression on human peripheral blood B cells (FACS) (human CD44 (on cells) [8]): 2.4 µg/mL
- IC50 of reduction of CD44 expression on human peripheral blood T cells (FACS) (human CD44 (on cells) [8]): 2.6 µg/mL
- IC50 of reduction of CD44 expression on human peripheral blood monocytes (FACS) (human CD44 (on cells) [8]): 3.3 µg/mL
- fold selectivity for CD44 over LYVE-1 [9]: > 100 fold
- binding result [1]: no binding (tested: 10 µg/ml)
- EC50 [10]: 0.011 µg/mL
- Kd [11]: 0.6 nM
- koff [11]: 0.000576 s⁻¹
- Kd [12]: 0.051 nM
- koff [12]: 0.00039 s⁻¹
- Kd (human CD44 (on cells) [13]): 6.8 nM
- IC50 [14]: 0.41 µg/mL
- IC50 (read off the curve) (human CD44 (on cells) [15]): ~3 µg/mL
B3: anti-CD44 monoclonal antibody 1A9.A6.B9 (antibody, human IgG2, kappa, V domains shown)
VH: QVQLVESGGGVVQPGRSLRLSCAASGFTFSSYGMHWVRQAPGKGLEWVAVIWYDGSNKFYADSVKGRFTISRDNSKNTLYLQMNSLRAEDTAVYYCARRSDYRGYYGMDVWGQGTTVTVSS
VL: EIVLTQSPATLSLSPGERATLSCRASQSVINYLAWYQQKPGQAPRLLIYDASNRASGIPARFSGSGSGTDFTLTISSLEPEDFAVYYCQQRRNWPLTFGGGTKVEIKR
notes: also called mAb 1A9.A6.B9

- IC50 of IFN-γ release from human peripheral blood activated by anti-CD3 and anti-CD28 antibodies (human CD44 (on cells) [5]): 2.45 µg/mL
- IC50 of IL-2 release from human peripheral blood activated by anti-CD3 and anti-CD28 antibodies (human CD44 (on cells) [5]): 0.46 µg/mL
B4: 2D1 WT/H38Q (mutated antibody 2D1.A3.D12: wild-type heavy chain, light chain H38Q) (antibody, human IgG1, kappa, V domains shown)
VH: QVQLVQSGAEVKKPGASVKVSCKASGYIFTSYAMHWVRQAPGQRLEWMGWINAAIGSTKYSQKFQGRVTITRDTSASTAYMELSSLRSEDTAVYYCARDGWEDYYYHGMDVWGQGTTVTVSS
VL: DIQMTQSPSSVSASVGDRVTITCRASQGISSWLAWYQQKPGKAPKLLIYAASSLQSGVPSRFSGSGSGTDFTLTISSLQPEDFATYYCQQANNFPWTFGQGTKVEIKR

- IC50 of IL-1β release from purified human PBMC stimulated by HA (human CD44 (on cells) [2]): 0.23 µg/mL
- IC50 of reduction of CD44 surface expression on cynomolgus peripheral CD3+ T cells (FACS) [6]: > 20 µg/mL
- IC50 of reduction of CD44 surface expression on human peripheral CD3+ T cells (FACS) (human CD44 (on cells) [3]): > 20 µg/mL
- fold selectivity for CD44 over LYVE-1 [9]: > 100 fold
- binding result [1]: no binding (tested: 10 µg/ml)
- EC50 [10]: 0.024 µg/mL
- Kd [11]: 2.01 nM
- koff [11]: 0.000653 s⁻¹
- IC50 [4]: 0.33 µg/mL
B5: anti-CD44 monoclonal antibody 2D1.A3.D12 (antibody, human IgG1, kappa, V domains shown)
VH: B4 VH
VL: B4 VL with Q38H
